The target of assay [1] is T1, human amylin 3(a) receptor (human calcitonin receptor plus RAMP-3) (human, UniProt P30988 25-474; O60896 24-148, limits assumed).
T1 construct: whole, on cells; Whole cells in the luciferase assay (Assay II a); also called hAmylin-R; human amylin receptor
T1 sequence (looked up) 1: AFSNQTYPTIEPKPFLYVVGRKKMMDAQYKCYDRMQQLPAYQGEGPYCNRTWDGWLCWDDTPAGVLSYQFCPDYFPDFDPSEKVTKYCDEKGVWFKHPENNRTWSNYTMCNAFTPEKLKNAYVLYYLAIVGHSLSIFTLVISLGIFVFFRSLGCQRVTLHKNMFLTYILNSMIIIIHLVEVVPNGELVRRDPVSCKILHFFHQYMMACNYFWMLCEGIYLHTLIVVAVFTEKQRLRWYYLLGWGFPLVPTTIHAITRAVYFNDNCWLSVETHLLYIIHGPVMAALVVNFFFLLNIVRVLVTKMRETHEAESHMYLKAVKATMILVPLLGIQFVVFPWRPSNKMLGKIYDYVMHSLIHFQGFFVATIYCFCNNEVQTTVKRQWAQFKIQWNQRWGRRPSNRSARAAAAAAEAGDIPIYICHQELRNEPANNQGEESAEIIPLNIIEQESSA
T1 sequence (looked up) 2: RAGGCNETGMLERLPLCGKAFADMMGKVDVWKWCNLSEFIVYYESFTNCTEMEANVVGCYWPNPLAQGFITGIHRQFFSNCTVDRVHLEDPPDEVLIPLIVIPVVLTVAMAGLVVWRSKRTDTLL
The assay is described as follows: SPA competition binding, displacement of 125I-rat amylin from membranes of Amylin 3(a)/CRE-luc BHK cells (Assay V). On the procedure: The binding assay was performed using scintillation proximity assay (SPA) beads (RPNQ0001) from PerkinElmer and cell membranes from the Amylin 3(a)/CRE-luc cells (as described in Assay (II)) were used. Membranes were prepared in the following way; the cells were rinsed with PBS and incubated with Versene for approximately 5 min before harvesting. The cells were flushed with PBS and the cell-suspension was centrifuged for 5 min at 1000 rpm. Cells were homogenized (ultrathurrax) in a buffer containing 20 mM Na-HEPES and 10 mM EDTA (pH 7.4) and centrifuged at 20.000 rpm for 15 min. The resulting pellet was resuspended, homogenized and centrifuged (20.000 rpm, 15 min) in a buffer containing 20 mM Na-HEPES and 0.1 mM EDTA (pH 7.4, buffer 2). The resulting pellet was resuspended in buffer 2 and protein concentration was measured (BCA protein Assay, Pierce). The homogenate was kept cold during the whole procedure. The membranes were kept at −80° C. until use. The assay was performed in a 384 well Optiplate (PerkinElmer) in a total volume of 40 ul. Membranes were mixed with SPA beads. Final concentration of membranes 35 ng/μL final and SPA beads was 0.05 mg/well. Test-compounds were dissolved in DMSO and further diluted in assay buffer (50 mM Hepes, pH 7.4, 1 mM CaCl2, 5 mM MgCl₂, 0.1% OA and 0.02% Tween20). […] The final mixture was incubated with shaking at 400 rpm for 120 min at 25° C. prior to centrifugation (1500 rpm, 10 min). Samples were analyzed on TopCounter™ (Packard). The IC₅₀ was calculated using (one site binding competition analysis) GraphPad Prism5 as a measure of receptor affinity.
(In general: Displacement assays read how much labelled ligand stays bound in the presence of the test substance.)

In assay [2] the target is T2, human calcitonin receptor (human, UniProt P30988 25-474).
T2 sequence (looked up): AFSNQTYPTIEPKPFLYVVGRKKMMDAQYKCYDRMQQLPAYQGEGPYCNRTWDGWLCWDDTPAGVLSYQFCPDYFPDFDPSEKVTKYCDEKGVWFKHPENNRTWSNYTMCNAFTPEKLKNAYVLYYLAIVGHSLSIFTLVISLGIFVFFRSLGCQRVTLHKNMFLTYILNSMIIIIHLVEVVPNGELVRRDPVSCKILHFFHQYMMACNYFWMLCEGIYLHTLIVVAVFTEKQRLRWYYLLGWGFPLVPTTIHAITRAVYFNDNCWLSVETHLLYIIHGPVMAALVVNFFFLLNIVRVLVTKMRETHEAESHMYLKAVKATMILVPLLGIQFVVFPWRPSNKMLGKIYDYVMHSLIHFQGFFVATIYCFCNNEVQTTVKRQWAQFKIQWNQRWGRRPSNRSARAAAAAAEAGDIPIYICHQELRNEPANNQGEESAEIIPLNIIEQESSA
Briefly: cell-based or functional assay.

In assay [3] the target is T1, human amylin 3(a) receptor (human …). Briefly: cell-based or functional assay.
For assay [4], the target named is T3, human calcitonin receptor (human, UniProt P30988 25-474).
T3 sequence (looked up): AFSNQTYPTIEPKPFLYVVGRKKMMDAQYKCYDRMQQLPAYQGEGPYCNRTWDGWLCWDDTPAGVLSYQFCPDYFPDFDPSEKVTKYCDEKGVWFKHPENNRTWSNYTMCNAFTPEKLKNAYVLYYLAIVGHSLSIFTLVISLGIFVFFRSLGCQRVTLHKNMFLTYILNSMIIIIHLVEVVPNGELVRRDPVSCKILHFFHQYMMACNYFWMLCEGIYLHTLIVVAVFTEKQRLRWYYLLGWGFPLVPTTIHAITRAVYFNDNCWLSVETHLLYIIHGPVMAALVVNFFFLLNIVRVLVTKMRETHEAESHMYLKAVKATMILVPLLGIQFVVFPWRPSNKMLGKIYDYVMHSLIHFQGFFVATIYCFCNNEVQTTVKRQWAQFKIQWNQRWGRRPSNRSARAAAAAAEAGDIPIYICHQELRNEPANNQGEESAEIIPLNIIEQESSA
The assay is described as follows: cell-based or functional assay. This is another data set of the same source.

In assay [5] the target is T4, human amylin receptor (amylin 3(a) receptor: human calcitonin receptor co-expressed with RAMP-3) (human, UniProt P30988 25-474; O60896 24-148, limits assumed).
T4 sequence (looked up) 1: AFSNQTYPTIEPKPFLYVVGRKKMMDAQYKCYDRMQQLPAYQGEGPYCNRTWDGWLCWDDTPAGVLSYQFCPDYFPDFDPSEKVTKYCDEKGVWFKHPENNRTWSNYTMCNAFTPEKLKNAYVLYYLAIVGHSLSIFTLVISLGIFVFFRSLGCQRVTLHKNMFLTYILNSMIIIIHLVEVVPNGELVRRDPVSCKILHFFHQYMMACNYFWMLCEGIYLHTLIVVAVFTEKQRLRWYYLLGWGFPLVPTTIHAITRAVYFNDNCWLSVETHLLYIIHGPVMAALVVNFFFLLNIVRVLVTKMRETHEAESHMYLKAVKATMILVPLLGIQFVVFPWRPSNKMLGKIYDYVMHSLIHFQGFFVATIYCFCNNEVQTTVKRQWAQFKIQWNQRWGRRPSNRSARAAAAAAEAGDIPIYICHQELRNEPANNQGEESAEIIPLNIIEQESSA
T4 sequence (looked up) 2: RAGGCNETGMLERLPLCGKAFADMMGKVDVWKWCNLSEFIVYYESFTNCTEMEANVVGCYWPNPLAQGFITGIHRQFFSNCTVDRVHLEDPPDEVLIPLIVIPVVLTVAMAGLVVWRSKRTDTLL
The assay is described as follows: cell-based or functional assay.

Where two headings read alike, the source gives them in different places. Numbered stars: 1 amine (or outer) side, 2 acyl side, 3 side chain; on linkers, the order of the positions; unused ones are H or OH. Bridge positions count the residues as written; N and C are the ends. * marks the point of attachment. C20 diacid = O=C(O)CCCCCCCCCCCCCCCCCCC(=O)*; γGlu = O=C(O)[C@H](CCC(=O)[*:2])N[*:1]

B1: N^α1-[(4S)-4-carboxy-4-(19-carboxynonadecanoylamino)butanoyl]-[Glu14,Arg17,Pro21,Pro27]-h-amylin (peptide)
peptide: KCNTATCATQRLAEFLRHSSPNFGAIPSSTNVGSNTY
modifications: C20 diacid-gGlu on the alpha amino group of the N-terminal residue (position 1); disulfide bridge Cys2-Cys7; C-terminal amide
notes: also called compound 9
For the molecule B1, in assay [1], the concentration for half-maximal inhibition (IC50) – broadly, the point on the concentration scale where inhibition reaches its midpoint – was determined as 0.143 nM. For the same molecule, the “hCTR funct. EC50” value in assay [2] was found to be 1.29 nM. Also, in assay [3], the “Ratio hCT/hAmylin funct.” value worked out at 7.4 and the “hAmylin-R funct. EC50” value amounted to 0.175 nM.

B2: N^-1-[(4S)-4-carboxy-4-(19-carboxynonadecanoylamino)butanoyl]-Gly[Arg1,Arg17,Pro21,Pro27,His35]-h-amylin (peptide)
peptide: {C20 diacid-γGlu}-GRCNTATCATQRLANFLRHSSPNFGAIPSSTNVGSHTY-NH2
modifications: disulfide 3-8
SMILES: CC[C@H](C)[C@H](NC(=O)[C@H](C)NC(=O)CNC(=O)[C@H](Cc1ccccc1)NC(=O)[C@H](CC(N)=O)NC(=O)[C@@H]1CCCN1C(=O)[C@H](CO)NC(=O)[C@H](CO)NC(=O)[C@H](Cc1c[nH]cn1)NC(=O)[C@H](CCCNC(=N)N)NC(=O)[C@H](CC(C)C)NC(=O)[C@H](Cc1ccccc1)NC(=O)[C@H](CC(N)=O)NC(=O)[C@H](C)NC(=O)[C@H](CC(C)C)NC(=O)[C@H](CCCNC(=N)N)NC(=O)[C@H](CCC(N)=O)NC(=O)[C@@H](NC(=O)[C@H](C)NC(=O)[C@@H]1CSSC[C@H](NC(=O)[C@H](CCCNC(=N)N)NC(=O)CNC(=O)CC[C@H](NC(=O)CCCCCCCCCCCCCCCCCCC(=O)O)C(=O)O)C(=O)N[C@@H](CC(N)=O)C(=O)N[C@@H]([C@@H](C)O)C(=O)N[C@@H](C)C(=O)N[C@@H]([C@@H](C)O)C(=O)N1)[C@@H](C)O)C(=O)N1CCC[C@H]1C(=O)N[C@@H](CO)C(=O)N[C@@H](CO)C(=O)N[C@H](C(=O)N[C@@H](CC(N)=O)C(=O)N[C@H](C(=O)NCC(=O)N[C@@H](CO)C(=O)N[C@@H](Cc1c[nH]cn1)C(=O)N[C@H](C(=O)N[C@@H](Cc1ccc(O)cc1)C(N)=O)[C@@H](C)O)C(C)C)[C@@H](C)O
notes: 38 residues: N-terminal extension by Gly (-1G); also called compound 47
As for B2, in assay [4], the “Ratio hCT/hAmylin funct. (hCTR EC50 against hAmylin-R EC50)” value turned out to be 6 and the “hCTR funct. EC50” value stood at 1.32 nM. Also, in assay [5], the “hAmylin-R funct. EC50” value came out at 0.222 nM.

For the origin of these results see US20140087995A1 (published 2014).
